{"source": "the RNAGym collection of RNA variant scans (doi:10.1073/pnas.2313332121)", "parents": {"B1": {"name": "TPR t1 (parent)", "chain": "GACCAAUCUGCCCUCAGAGCUCGAGAACAUCUUCGGAUGCAGAGGAGGCAGGCUUCGGUGGCGCGAUAGCGCCAACGUCCUCAACCUCCAAUGCAUCCCACCACAUGAUGAUGCCUGAAGAGCCUUGGUUUUUUG"}}}
{"variants_of": "B1", "assay": "polymerase ribozyme fitness, log enrichment relative to wild type (log ratio); higher = more active; in vitro selection for triplet polymerase activity", "procedure,_shortened": "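Each subunit of a heterodimeric triplet polymerase ribozyme was represented by a PCR-built, transcribed mutant library that underwent triplicate single-round in vitro selection with frozen incubation at −7 °C. Extended constructs were recovered by gel excision, streptavidin-bead capture and RT-PCR, and Illumina sequencing of input and output libraries kept genotypes with ≥10 input reads and ≥1 read per output. Fitness is the logarithm of genotype enrichment relative to wild-type enrichment, from inverse-variance-weighted replicate averages, with a logarithm base of 2.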"}
{"variant": "GACCAAUCAGCCCUCAGACCUCGAGAACAUCUUCGGAUGCUGAGGAGGCAGGCUUCGGUGGCCCGAUAGCGCCAACGUCCUCAACCUCCAAUGCAUCCCACCACAUGAUGAUGCCUGAAGAGCCUUGGUUUUUUG", "note": "[U9A G19C A41U G63C]", "polymerase ribozyme fitness (log ratio)": -3.34}
{"variant": "GACCAAUCAGCCCUCAGAGCUCGAGAACAUCUUCGGAUCCAGAGGAGGCAGGCUUCGGUGGCGCGAUAGCGCCAACGUCCUCAACCUCCAAUGUAUCCCACCACAUGAUGAUGCCUGAAGAGCCUUGGUUUUUUG", "note": "[U9A G39C C94U]", "polymerase ribozyme fitness (log ratio)": -0.376}
{"variant": "GACCAAUCAGCCCUCAGAGCUCGAGAACAUCUUCGGAUGCAGAGGAGGCAGGCUUCGGUGGCUCGAUAGCGCCAACGUCCUCAACCUCCAAUGCAGCCCACCACAUGAUGAUGCCUGAAGAGCCUUGAUUUUUUG", "note": "[U9A G63U U96G G128A]", "polymerase ribozyme fitness (log ratio)": -2.96}
{"variant": "GACCAAUCAGCCCUCAGAGCUCGAGAACAUCUUCGCAUGCAGAGGAGGCAGGCUUCGGUGGCGCGAUAGCGCCAACGUCCUCAACCUCCAAUGCAUCCCAUCACAUGAUGAUGCCUGAAGAGCCUUGGUUUUUUG", "note": "[U9A G36C C101U]", "polymerase ribozyme fitness (log ratio)": -0.0357}
{"variant": "GACCAAUCACCCCUCAGAGCUCGAGAACAUCUUCGGAUGCAGAGGAGGCAGGCUUCGGUGGCGCGAUAGCGCCAACGUACUCAACCUCCAAUGCAUCCCAGCACAUGAUGAUGCCUGAAGAGCCUUGGUUUUUUG", "note": "[U9A G10C C79A C101G]", "polymerase ribozyme fitness (log ratio)": -2.55}
{"variant": "GACCAAUCAGCCCGCAGAGCUCGAGAACAUCUUCGGAUGCAGAGGAGGCAGGCUUCGGUGGCGCGAUAGCGCGAACGUCCUCAACCUCCAAUGCAUCCCACCACAUGAUGAUGCCUCAAGAGCCUUGGUUUUUUG", "note": "[U9A U14G C73G G117C]", "polymerase ribozyme fitness (log ratio)": -1.75}
{"variant": "GACCAAUCAGCCCUCAGAGCUCGAGAACAUCUUCGGAUGCAGAGGAGGCAGGCUUCGGUAGCGCGAUAGAGCCAACGUCCUCAACCUCCAAUGCAUCUCAGCACAUGAUGAUGCCUGAAGAGGCUUGGUUUUUUG", "note": "[U9A G60A C70A C98U C101G C123G]", "polymerase ribozyme fitness (log ratio)": -6.71}
{"variant": "GACCAAUCAGCCCUCAGAGCUCGAGAACAUCUUCGGAUGCAGAGGAGGCAGGCUUCGGUGGCGCGAUAGCGCUAACGUCCUCAACCUCCAAUGCAUCCCACCACAUGAUGAUGCCUGAAGAGCCUUGGUUUUUUG", "note": "[U9A C73U]", "polymerase ribozyme fitness (log ratio)": 0.98}
{"variant": "GACCAAUCAGCCCUCAGAGCUCAACAACAUCUUCGGAUGCAGCGGAGGCAAGCUUCGGUGGCGCGAUGGCGCCAACGUCCUCAACCUCCAAUGCAUCCCACCACAAGAUGAUGCCUGAAGAGUCUUGGUUUUUUG", "note": "[U9A G23A G25C A43C G51A A68G U106A C123U]", "polymerase ribozyme fitness (log ratio)": -6.69}
{"variant": "GACCAAUCAGCCCUCAGAGCUCGAGAACAUCUUCGGAUGCAGACGAGGCAGGCUUCGGUGGCGCGAUAGGGCCAACGUCCUCAACCUCCAAUGCAUCCCACCACAUGAUGAUGCCUGAAGAGCCUUGGUUUUUUG", "note": "[U9A G44C C70G]", "polymerase ribozyme fitness (log ratio)": -4.48}
{"variant": "GACCAAUCAUCCCUCAGAGCUCGAGAACAUCUUCGGAUGCAGAUGAGGCAGGCUUCGGUAGCGCGAUAGCGCCAACGUCCUCAACCUCGAAUGCAUCCCACCACAUGAUGAUGCCUGAAGAGCCUUCGUUUUUUG", "note": "[U9A G10U G44U G60A C89G G127C]", "polymerase ribozyme fitness (log ratio)": -2.63}
{"variant": "GACCAAUCAGCCCUCAGAGCUCGAGAACAUCUUCGGAUGCAGAGGAGGCAGGCUUCGGUGGCGCGAUACCGCCAACGUCCUCAACCUCCAAUGCAUCCCACCACAUGAUGAUGCCUGAAGAGCCUUGGUUUUUUG", "note": "[U9A G69C]", "polymerase ribozyme fitness (log ratio)": -0.589}
{"variant": "GACCAAUCAGCCCUCAGAGCUCGAGAACAUCUUCGGAUGCAGAGGAGGCAGUCUUCGGUGGCGCGAUAGCGCCAACGUCCUCAACCUUCAAUGCAUCCCACCACAUGAUGAUGCCUGAAGAGCAUUGGUUUUUUG", "note": "[U9A G52U C88U C124A]", "polymerase ribozyme fitness (log ratio)": 0.944}
{"variant": "GACCAAUCAGCCCUCAGAGCUCGAGAACAUCUUCGGAUGCAGAGGAGCCAGGCUUCGGUGGAGCGAUAGCGCCAACAUCCUCAACCUUCAAUGCAUCCCACCACAUGAUGAAGCCUGAAGAGCCUUGGUUUUUUG", "note": "[U9A G48C C62A G77A C88U U112A]", "polymerase ribozyme fitness (log ratio)": -3.81}
{"variant": "GACCAAUCAGCCCUCAGAGCUCGAGAACAUCUUCGGAUGCAGAGGAGGCAGGCUUCGGUGGCGCGAUAGCGCCAACGUCCUCAACCUCCAAUGCAUCCCACCACAUGAUGAUGCCUGAAGAACCUUGGUUUUUUG", "note": "[U9A G122A]", "polymerase ribozyme fitness (log ratio)": 0.926}
{"variant": "GACCAAUCAGCCCUCAGAGCUCGAGAACAUCUUCGGAUGCAGAGGAGGCAGGCUUCGGUGGCUCGAUAGCGCCAACGACCUCAACCUCCAAUCCAUCCCACCACAUGAUGAUGCCUGAAGAGCGUUGCUUUUUUG", "note": "[U9A G63U U78A G93C C124G G128C]", "polymerase ribozyme fitness (log ratio)": -3.75}
{"variant": "GACCAAUCAGCCCUCAGAGCUCGAGAACAUCUUCGGAUGCAGAGGAGGCAGGCUUCGGUGGCGCGAUAGCUCCAACGUCCUCAACCUCCAAUGAAUCCCACCACAUGAUGAUGCCUGAAGAGGCUUGGUUUUUUG", "note": "[U9A G71U C94A C123G]", "polymerase ribozyme fitness (log ratio)": 0.355}
{"variant": "GACCAAUCACCCCUCAGAGCUCGAGAACAUCUUCGGAUGCAGAGGAGGCAGGCUUCGGUGGCGCGAUAGCGCUAACGUCCUCAACCUCCAAUGCAUCCCACGACAUGAUGAUGGGUGAAGAGCCUUGGUUUUUUG", "note": "[U9A G10C C73U C102G C114G C115G]", "polymerase ribozyme fitness (log ratio)": -6.5}
{"variant": "GACCAAUCAGCCCUCAGAGCUCGAGAACAUCUUCGGAUGCAGAGGAGGCAGGCUUCGGUGGCGCGAUAGCGCCAACGUCCUCAACCUCCAAUGCAUCCCACCACAUGAUGAUGCCUGAAGAGCCUUGCUUUUUUG", "note": "[U9A G128C]", "polymerase ribozyme fitness (log ratio)": -2.11}
{"variant": "GACCAAUCAGCCCUCAGAGCUCGAGAACAUCUUCUGAUGCAGAGGAGGCAGGCUUCGGUGGCGCGAUAGCGUCAACAUCCUCAACCUCCAAUGCAUCCCACCACAUGAUGAUGCCUGAAGAGCGUAGGUUUUUUG", "note": "[U9A G35U C72U G77A C124G U126A]", "polymerase ribozyme fitness (log ratio)": -5.65}
{"variant": "GACCAAUCAGCCCUCAGAGCUCGAGAACAUCUUCGGAUGCAGACGAGGCAGGCUUCGGUGGCGCGAUAGCGCCAACGUCAUCAACCUCCAAUGCACCCCACCACAUGAUGAUGCCUGAAGAGCCUUGGUUUUUUG", "note": "[U9A G44C C80A U96C]", "polymerase ribozyme fitness (log ratio)": -3.87}
